Laboratory results reported in the supplement of paper PMC10724198.
± gives the standard deviation of the averaged measurements.

Key:
Saccharomyces cerevisiae [1] = assay: protein stability index of tFT-peptide fusion (C-terminal peptide) (PSI (0-1 scale)); higher = more stable (slower turnover)
Method: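 MPS profiling in S. cerevisiae of the tFT-X12 degron library: putative degron peptides plus stable controls, 12 aa, fused to the C-terminus of a sfGFP-mCherry timer. Cells are FACS-sorted into 8 mCherry/sfGFP bins and deep-sequenced. PSI runs from 0 (unstable) to 1 (stable). Backgrounds are wild type, das1Δ and doa10Δ at 30 °C, and wild type, das1Δ, cdc34-1 and cdc53-1 at 37 °C; 2-3 technical replicates each.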

Saccharomyces cerevisiae [2] = assay: as above; conditions: genetic background: wild type; temperature: 30 C
[3] = genetic background: cdc34-1, temperature: 37 C
[4] = genetic background: cdc53-1, temperature: 37 C
[5] = genetic background: das1 deletion, temperature: 30 C
[6] = genetic background: das1 deletion, temperature: 37 C
[7] = genetic background: doa10 deletion, temperature: 30 C
[8] = genetic background: wild type, temperature: 30 C
[9] = genetic background: wild type, temperature: 37 C
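Further: PSI is a weighted mean of sequencing reads over stability bins, variants kept only with over 10 reads, mCherry proximal and sfGFP distal, peptide attached via GGGS linker.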

Sequence	protein stability index (Saccharomyces cerevisiae [1]; [3])	protein stability index (Saccharomyces cerevisiae [1]; [4])	protein stability index (Saccharomyces cerevisiae [1]; [5])	protein stability index (Saccharomyces cerevisiae [1]; [6])	protein stability index (Saccharomyces cerevisiae [1]; [7])	protein stability index (Saccharomyces cerevisiae [1]; [8])	protein stability index (Saccharomyces cerevisiae [1]; [9])	protein stability index (Saccharomyces cerevisiae [2])
MVVSLVLCFWAS	0.248 ± 0.026	0.331 ± 0.069	0.257 ± 0.024	0.409 ± 0.016	0.222 ± 0.0091	0.244 ± 0.018	0.414 ± 0.055	0.255 ± 0.045
LAINVRRELLFF	0.613 ± 0.0093	0.723 ± 0.021	0.643 ± 0.029	0.7665 ± 0.007	0.134 ± 0.001	0.148 ± 0.032	0.235 ± 0.007	0.235 ± 0.043
VYCLFLPLGVAF	0.115 ± 0.038	0.175 ± 0.072	0.184 ± 0.02	0.248 ± 0.0082	0.146 ± 0.016	0.171 ± 0.022	0.207 ± 0.026	0.27 ± 0.027
VRSELHINSFIH	0.656 ± 0.0076	0.767 ± 0.017	0.682 ± 0.017	0.741 ± 0.017	0.499 ± 0.047	0.501 ± 0.015	0.681 ± 0.025	0.53 ± 0.054
LVLGVEVCFVLG	0.102 ± 0.0073	0.16 ± 0.011	0.177 ± 0.033	0.296 ± 0.0065	0.147 ± 0.012	0.168 ± 0.032	0.246 ± 0.022	0.273 ± 0.015
AISLPVEVLAFS	0.4 ± 0.028	0.387 ± 0.024	0.286 ± 0.051	0.438 ± 0.022	0.255 ± 0.025	0.293 ± 0.01	0.439 ± 0.021	0.383 ± 0.048
ALLYIVVGWSLS	0.0455 ± 0.011	0.185 ± 0.033	0.167 ± 0.026	0.285 ± 0.025	0.12 ± 0.019	0.145 ± 0.027	0.231 ± 0.0024	0.24 ± 0.074
PVGRSVFFVWFL	0.65 ± 0.071	0.7009 ± 0.0022	0.587 ± 0.019	0.744 ± 0.029	0.3522 ± 0.0035	0.367 ± 0.016	0.554 ± 0.013	0.458 ± 0.019
FGVLGCAWVWVG	0.394 ± 0.0091	0.528 ± 0.032	0.465 ± 0.033	0.625 ± 0.017	0.0888 ± 0.019	0.114 ± 0.021	0.103 ± 0.037	0.157 ± 0.045
VRIGCSLLFFLP	0.661 ± 0.036	0.734 ± 0.014	0.589 ± 0.0067	0.6934 ± 0.0062	0.478 ± 0.015	0.501 ± 0.015	0.6267 ± 0.0046	0.532 ± 0.051
ALRLVAFFWVPG	0.482 ± 0.063	0.536 ± 0.038	0.427 ± 0.025	0.5392 ± 0.0037	0.415 ± 0.035	0.4099 ± 0.0011	0.5126 ± 0.0048	0.422 ± 0.0081
ARFFFFCVGILI	0.379 ± 0.0081	0.474 ± 0.067	0.339 ± 0.066	0.503 ± 0.046	0.295 ± 0.035	0.354 ± 0.017	0.4581 ± 0.0031	0.378 ± 0.035
SLCVVIFFSSIT	0.301 ± 0.011	0.437 ± 0.037	0.274 ± 0.031	0.468 ± 0.019	0.2524 ± 0.0025	0.266 ± 0.041	0.413 ± 0.0017	0.356 ± 0.02
TFVLREYVWVMS	0.443 ± 0.049	0.425 ± 0.011	0.254 ± 0.038	0.443 ± 0.0057	0.202 ± 0.0032	0.231 ± 0.027	0.426 ± 0.027	0.304 ± 0.0032
KTSVLLCVSTSF	0.633 ± 0.0073	0.645 ± 0.021	0.427 ± 0.018	0.628 ± 0.015	0.442 ± 0.046	0.443 ± 0.016	0.628 ± 0.015	0.441 ± 0.019
KIIKERIRRIKI	0.653 ± 0.013	0.632 ± 0.1	0.591 ± 0.032	0.71254 ± 0.0005	0.153 ± 0.0034	0.181 ± 0.049	0.286 ± 0.076	0.243 ± 0.032
AVLAALVSTLAG	0.548 ± 0.019	0.565 ± 0.0091	0.383 ± 0.024	0.5888 ± 0.0053	0.349 ± 0.013	0.406 ± 0.028	0.553 ± 0.026	0.4785 ± 0.00075
GVWLRAVRGFGV	0.706 ± 0.03	0.7586 ± 0.0013	0.646 ± 0.013	0.76107 ± 0.00069	0.652 ± 0.0083	0.6542 ± 0.0058	0.7403 ± 0.0064	0.738 ± 0.04
FYGVRFLVCVSA	0.0202 ± 0.0026	0.0332 ± 0.0048	0.111 ± 0.037	0.117 ± 0.015	0.0738 ± 0.018	0.105 ± 0.03	0.096 ± 0.0045	0.1575 ± 0.0005
